# Assay results published in the nanobody polyreactivity screen of Harvey et al. (2022).
# Experiment: yeast display, Sf9 membrane polyspecificity reagent, FACS + sequencing; frameworks hold sequencing errors
# Method in brief: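 Genes from sorted yeast were amplified by colony PCR, read by MiSeq 2 × 250 sequencing and filtered on CDR length. These cells carried a synthetic nanobody library in Saccharomyces cerevisiae BJ5465 and were sorted by FACS into low and high (top ~1%) gates on anti-HA and streptavidin fluorescence. Polyreactivity is labelled according to the gate of origin.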
row,Sequence,polyreactivity (PSR sort gate)
1,QVQLVESGGGLVQAGGSLRLSCAASGFTFRGNAMGWYRQAPGKERELVAAITSSDDSTYYADSVKGRFTISRDYAKNTVYLQMNSLKPEDTAVYYCAAEGVHYAGDYGTGYDYWGQGTQVTVSS,low polyreactivity
2,QVQLVESGGGLVQAGGSLRLSCAASGSTFGINAMGWYRQAPGKERELVASITRRGGSTYYADSVKGRFTISRDNAKNTVYLQMNSLKTEDTAVYYFNKTYRYGTPLYDYWGQGTQVTVSS,high polyreactivity
3,QVQLVESGGGLVQAGGSLRLSCAASGFTFKRYAMGWYRQAPGKESELVAVISSGGSTYYADSVKGRFTISRDNAKNTVYLQMNSLKPEDTAVYYCNAYIGGSSWHTALDYWGQGTQVTVSS,high polyreactivity
4,QVQLVESGGGLVQAGGSRRLSCAASGSTFDFYVMGWYRQAPGKERELVAAIRWSGGSTYYADSVKGRFTISRDNAKNTVDLPMTRLKPEDTAVDYCPADGDHYGYSYYYGYGYWGQGTQVTVSS,high polyreactivity
5,QVQLVESGGCLVQAGGTLRLSGAASGRTFRADGMGWCRQPPGKEWELVAVISWRDGSTFYADSVQGRFTISRDTAKNTVYLQMNSLKPEDTAVYYCNKASQLYYIQGTYSYGYWGQGTQVTVSS,low polyreactivity
6,QVKLVESGGALVQAGGSLRLSCPASGRTFGQTAMGWYRQAPGKERELVAAITWSDDDTYYADSVKGRFTISRDNAKNTVYLQMNSLKPEDTAVYYCAATYPYRQYDYWGQGTQVTVSS,low polyreactivity
7,QVQLVESGGGLVQAGGSLRLSCAASGFRLNAMGWYRQAPGKERELVAAITASGGSTYYADSVKGRFTISRDNAKNTVYLQMNSQKPEDTAVYYCARYHPVRGYNYWGQGTQVTVSS,high polyreactivity
8,QVQLVESGGGLVQAGGSLRLSCAASGRIFVINTMGWYRQAPGKERELVAAISRGGSTNYADSVKGRFTISRDNAKNTVYLQMNSLKPEDTAVYDCAATGYILFAGCGYDYWGEGTQVTVSS,low polyreactivity
9,QVQLVESGGGLVQAGGSLRLTCAASGYTFYYAMGWYRQAPGKERELVAAITRGGSTYYADSVKGRFTISRDNAKNTVYLQMNSLKPEDTAVYYCATEYHAHYASRALYGYDHWGQGTQVTVSS,low polyreactivity
10,QVQLVESGGGLVQAGGSLRLSCAASGRTFPAYTMGWYRQAPGKERELVAAINWSGGSTYYADSVKGRFTISRDNAKNTVYLQMNSLKPEDTAVYYCARTSRYYGFRSYGTLDYWGLGTQVTVSS,high polyreactivity
11,QVQLVESGGGLVQAGGSLRLSCAASGSTFPDYAMGWSRPAPGKERELVATINDGDSTSYADSVKGRFTISRDNAKNTVYLQMNSLKTEDTAVYYCAADIRSNRLYDGGYWGQGTQVTVSS,low polyreactivity
12,QVQLVESGGGLVQAGGSLRLSCAASGRIFYQYAMGWYRQAPGKERELVASITTSGGNTYYADSVKGRFTISRDNAKNTVYLQMNSLKPEDTAVYYCAARFNWRQWLYDYWGQGTQVTVSS,low polyreactivity
13,QVQLVESFGGLVHAGGSLRLSCAASGFTFTSYTMGWYRQAPGKEREMVAAITNTGGSTYYADSVKGRFTISRDNAKNYVYLQMNSLKQEDTWVYYCAARTHIYGKFWRFYWGQGTQVTVSS,low polyreactivity
14,QVQLVESGGGLVQAGGSLRLSCAASGSIFSYYAMGWYRQAPGKERELVAAISSRGDGRTYYADSVKGRFTISRDNAKNTVYLQMNSLKPEDTAVYYCAAESSHYRLRDRDYWGQGTQVTVSS,high polyreactivity
15,QVQLVESGGGLVQAGGSLRLSCAASGRIFLRNAMGWYRQAPGKERELVATITSRGGSTYYADSVKGRFTISRDNAKTTVYLQMNSLKPEDTAVYYCAADPRRYRGFGYVYGGFYYWGQGTQVTVSS,low polyreactivity
16,QVQQQESGGGLEQAGGSLRLSCAASGTIFQLTVMGRYRQAPGKERELVASIDYGGNTNYADSVKGRFTISRDNAKKTVYLQMNSLKPEDTAVYYCAASSDSWTTHPYWGQGTQVTVSS,low polyreactivity
17,QVQLVESGGGLLQAGGSLRLSCAASGINFSKYAMGWYRQAPGTERELVAVISASGGGTYYADSVKGRFTISRDNAKNTVYLQMNSLKPEDTAVYFCAADSSDVYDYWGQGTQVTVSS,high polyreactivity
18,QVQLVESGGGLVQAGGSLRLSCAASGRILSGNAMGWYRQAPGKERELVAAITNAAITKYADSVKGRFTISRDNAKNTVYLQMNSLKPEDTAVYYCATDRYAYKLYDYWGQGTQVTVSS,low polyreactivity
19,QVQLVESGGGLVLAGGSLRLSCAASGRTFRYYTMGWFRPAPGKEREFVAAISSTGGTYYADSVKGRFTISRDNAKNTVYLQMNSLNPEDTAVYYCAATFIQVVVNVQLYDYDYWGQGTQVTVSS,low polyreactivity
20,QVQLVESGGGLVQAGGSLRLSCAASGSTFTPNAMGWYRQAPGKERELVASISTTGGNTYYADSVKGRFTISRDNAKNTVYLQMNSLKPEDTADYYCNAVRSVYLYGYIYGVDYWGQGTQVTVSS,low polyreactivity
21,QVQLVESGGGLVQAGGSLRLSCAASGFTFRGNVMGWYRQAPGKERELVAGISSTGSGRTYYADSVKGRFTISRDNAKNTVYLQMNSLKPEDTAVYYCAASRTLRKHRYEYWGQGTQVTVSS,high polyreactivity
22,QVHLVESGGGLVQAGGSLRLTCAASGRIFAHYAMGWYRQAPGKERELVAAISSGGSTYYADSVKGRFTISRDNAKNTVYLQMNSVKPEDTAVYYCNKRPVRRKYDYWGQGTQVTVSS,low polyreactivity

row,Sequence,polyreactivity (PSR sort gate)
1,QVQLVESGGGLVQAGGSLRLSCASSGRTFVWNAMGWYRQAPGKERELVAAIDWSGGSTYYADSVKGRFTISRDYAKITVYLQMNSLKPEDTAVYYCAKEYWYRALWYNYWGQGTQVTVSS,high polyreactivity
2,QVQLVESGGGLVQAGGSLRLSCAASGRIFGQYAMGWYRQAPGKERELVAAISWRGGTTYYADSVKGRFTISRDNAKNTVYLKMNSLKPVDTAVYYCNADVWVYPYDYWGQGTQVTVSS,low polyreactivity
3,QVQLVESGGGLVQAGGSLRLSSAASGSTYDFKAMGWNRQAHGKERELFAAITGSGGSTDNADSVKGRFTISRDNAKNSVYLQMNSLKPEDTAVYYCNAGKTFDYRDGVGYDHWGQGTQVTVSS,low polyreactivity
4,QVQHVESGGGLVQAGGSLRLSCAASGFIFGRYTMGWYRQAPGKERELVAAISRGGITNYADSVKGRFTISRDNAKNTVYLQMNSLKPEDTAVYYCNAVGVRPGFKGFDYWGQGTQVTVSS,high polyreactivity
5,QVQLVESGGGLVQAGGSLRLSCAASGFTLFVYTMGWYRQAPGKERELVAAISSGDSTYYADSVKGRFTISRDNAKNTVYLQMNSLKPEDTAVYYCAAEWSGEAAWQVGAEDDYWGQGTQVTVSS,low polyreactivity
6,QVQLVESGGGLVQAGGSLRLSCAASGGTFYANAMGWYREAPGKERELVATITSSSGSTSYADSVKGRFTISRDNAKNTVYLQMNSLKPEDTAVYYCAKDSHAQGPYRYKHYHHTGDYWGQGTQVTVSS,low polyreactivity
7,QVQLVESGGGLVQAGGSLRLSCAASGSIFDVNAMGWYRQAPGKERELVAAISDSGGSTYYADSVKGRFTISRDNAKNTVYLQMNSLKPEDTAVYYCNADWSWYNYYDLDYWGQGTQVTVSS,low polyreactivity
8,QVQLVESGGGLVQAGGSLRLSCAASGFTFGYYVMGWYRQEPGKERELVAAITVSGASTYYADSVKGRFTISRDNAKNTVYLQMNSLKPEDTAVYYCAKRGYFPALRQSYYYWGQGTQVTVSS,high polyreactivity
9,QVQLVESGGGLVQAGGSLRLSCAASGIIFIAYAMGWYRQAPGKERELVADISIGGSTNYADSVKGRFTISRDNAKNTVYLQMNSLKPEDTAVYYCNAGGGFYGSTVEHDYWGQGTQVTVSS,low polyreactivity
10,QVQLVESGGGLVQAGGSLRLSCAASGFTFTYYAMGWYRQAPGKERELVAVISSAGSTYNADSVKGRFTISRDNAKNTVYLQMNSLKPEDTAVYYCNAVGRYYSSGRYGHWGQGTQVTVSS,high polyreactivity
11,QVQLVESGGGLVQAGGSLRLSCAASGITFLKNAMGWYRQAPGKERELVAAISSSGGSTYYADSVKGRFTISRDNAKNTVYLQMNSLKPEDTAVYYCAALSVGKRYRYEYWGQGTQVTVSS,high polyreactivity
12,QVQLVESGGGLVQAAGSLRLSCAASGSIFETYAMGWYRHAPGKERELVAAITQSGGSTYYADSVKGRFTISRDNAKNTVYLQMNSLKPEDTEVYYCAADLFVWWNWGYEYWGQGTQVTVSS,low polyreactivity
13,QVHLVESGGGLLQAGGSLRLSCAASGSTFSINGMGWYRQAPGKERELVAAITWRGTRTYYADSVKGRFTISRDNAKNTVYLEMNSLKPEVTAVYYCAATGSGEASFYYWGQGTQVTVSS,high polyreactivity
14,QVQLVESGGGLVQAGGSLRLSCAASGFTFRAYAMGWYRQAPGKERELVAAISTSGGSTYYADSVKGRFTISRDNAKNTVYLQMNSLKPEDTSVYYCAKRGLQGYWSPYNYWGQGTQVTVSS,high polyreactivity
15,QVQLVESGGGLVQAGGSHRLSCAASGSTFWRYAMGWYRQAPGKERELVAAITRRGSSTYYADSVKGRFTISRDNAKNTVYLQMNSLKPEDTAVYYCAREPYPYIRTYILGNYWGQGTQVTVSS,high polyreactivity
16,QVQLVESGAGIVQAGGSLRLCCAATGITFDFYAMGWYTQAPGKERELVAAISYSGTSTSYADSVKGRFTISRDNAKNTVYLQMNSLKPEDTAVYYCNARIGWTHSYYELDYWGQGTQVTVSS,low polyreactivity
17,QVQLVESGGGLVQAGGSLRLSCAASGRTFYSYAIGWYRPAPGKERELVASITRSGTRTYYADSVKGRFTISRDNAKNTVYLQMNSLKPEDSAVYYCAARYFPLGGYSWGQGTQVSVSS,high polyreactivity
18,QVQLVESGGGLVQAGGSLRLSCAASGRTIDRMLMGSYRQAPGKERELVAAITSGGRTNYADSVKGRFTISRDNAKNTVYLKMNSLKAEDTAFYYCARHGGRRPVSSKGNTYDYWGQGTQVTVLS,low polyreactivity
19,QVHLVESGGGLVQAGGSLRLSCAATGYIFDSYAMGWYRPAPGKEREFVAAISGSDGSTYYADSVKGRFTISRDNAKNTVYLQMNSLKPEDTAVYYCAADPYYGEMEYWGQGTQVTVSS,low polyreactivity
20,QVRLVESGGGLFQAGGSLRISCAASGRIFNTYAMGWYRQAPGKERELVAAIRWSSGSTFYADSVKGRFTISRDYAKNTVYLQMNSLKPEDTAVYYCAADNWAVNAYYGYIYDYWGQGTQVTVSS,low polyreactivity
21,QVQLVESGGVLVQAGGILRLSCAASGSIFYMYAMGWYRQAPGKERELVAAISRSGGRTYYADSVKGRFTISRDNAKNTVYLQMNSLKPEDTAVFYCAARDHYSTGGMKYWGQGTQVTVSS,high polyreactivity
